Reference: patent US20240092930A1

Key:
[1] = biological target: human Trop-2 on the surface of cells (CHO/Trop-2 cells; BxPC-3 cells; NCI-N87 cells) (human) (UniProt P09758); test: cell-based or functional assay
[2] = biological target: human Trop-2 on the surface of cells (CHO/Trop-2 cells; BxPC-3 cells; NCI-N87 cells) (human) (UniProt P09758); test: FACS, BxPC cells, antibody left on the surface after 3 h at 37° C.
[3] = biological target: human Trop-2 on the surface of cells (CHO/Trop-2 cells; BxPC-3 cells; NCI-N87 cells) (human) (UniProt P09758); test: FACS, BxPC cells, antibody left on the surface, control kept at 4° C.

human Trop-2 on the surface of cells (CHO/Trop-2 cells; BxPC-3 cells; NCI-N87 cells) (human), sequence (P09758 27-323): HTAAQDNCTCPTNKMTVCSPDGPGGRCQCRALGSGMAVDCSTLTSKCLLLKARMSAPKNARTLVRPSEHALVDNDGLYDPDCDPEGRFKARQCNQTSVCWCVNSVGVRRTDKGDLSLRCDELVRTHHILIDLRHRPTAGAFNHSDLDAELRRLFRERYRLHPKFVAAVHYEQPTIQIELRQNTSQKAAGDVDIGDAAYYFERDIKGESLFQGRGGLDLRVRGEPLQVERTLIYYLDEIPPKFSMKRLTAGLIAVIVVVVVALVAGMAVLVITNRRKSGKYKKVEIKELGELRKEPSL

IgG1 isotype control antibody NC-IgG1
Internalization percentage (%), 3 h, BxPC cells, FACS [1]: 3.29%
Internalization percentage, 1 h, BXPC-3 cells, FACS [1]: -63%
Internalization percentage, 1 h, NCI-N87 cells, FACS [1]: -95%
Fluorescence intensity (MFI), 37° C. [2]: 715 MFI
Fluorescence intensity (MFI), 4° C. [3]: 739 MFI
